Data as given in patent US20240010695A1 (ASHER BIOTHERAPEUTICS, published 2024).

Target: Wild type IL-10 dimer fused to xhCD8b (format E) (Homo sapiens (Human), UniProt P22301 19-178; P22301 19-178)
Assay: SPR 37 C; fusion captured via Fc, IL-10RA ECD analyte
Experimental: To determine the affinities with IL-10RA, antibody or fusion proteins were captured onto the CM4 sensor chip via their Fc by covalently anti-human Fc antibody (Southern Biotech, Catalog No. 2081-01). Protein was not captured on flow cell 1 to serve as a reference surface. In-house generated human IL-10RA ECD, diluted in HBS-P+ buffer supplemented with 1 g/L BSA, at concentrations of 8, 40, 200, 1000, and 5000 nM, or buffer was flowed over the surface-captured fusion protein for 2 minutes at 30 μL/min. Dissociation was monitored for 4-5 minutes, and the anti-hIgG-Fc surface was regenerated with three 30-seconds injections of 75 mM phosphoric acid between analysis cycles. Binding data were analyzed by Biacore® Evaluation Software version 3.2 using a 1:1 Langmuir with mass transport model or by steady-state affinity analysis.
As shown in Example 3, fusion proteins comprising CD8 antibodies and IL-10 monomer polypeptides selectively activated CD8+ T cells over monocytes and CD4+ T cells. […] Amino acid substitutions and the amino acid sequences of representative mutant monomer IL-10 polypeptides that were evaluated are shown in Table 4A. […] In all cases, the IL-10 polypeptide was expressed as a fusion protein, with the antibody binding domain specified in column 2, and the format shown in parentheses, based on the schematics depicted in FIG. 6.

Chain of Wild type IL-10 dimer fused to xhCD8b (format E) (P22301 19-178 limits assumed, chain 1 of 2): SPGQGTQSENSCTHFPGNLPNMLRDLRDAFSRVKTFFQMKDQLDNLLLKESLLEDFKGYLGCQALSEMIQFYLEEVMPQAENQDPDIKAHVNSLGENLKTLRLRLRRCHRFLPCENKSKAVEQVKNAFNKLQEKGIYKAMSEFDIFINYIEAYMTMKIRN
Chain of Wild type IL-10 dimer fused to xhCD8b (format E) (P22301 19-178 limits assumed, chain 2 of 2): as the sequence (P22301 19-178 limits assumed, chain 1 of 2) above

B1: human IL-10RA ECD (receptor)
chain: HGTELPSPPSVWFEAEFFHHILHWTPIPNQSESTCYEVALLRYGIESWNSISNCSQTLSYDLTAVTLDLYHSNGYRARVRAVDGSRHSNWTVTNTRFSVDEVTLTVGSVNLEIHNGFILGKIQLPRPKMAPANDTYESIFSHFREYEIAIRKVPGNFTFTHKKVKHENFSLLTSGEVGEFCVQVKPSVASRSNKGMWSKEECISLTRQYFTVTN
notes: In-house generated ECD; A biotinylated form held the fusions on the chip in the IL-10RB assay
- Kd: 4.5 nM
